Assay results taken from patent US20240294623A1 (SCHOLAR ROCK, published 2024).

How the values were obtained:
hLTBP3-proTGFβ1 [1] = biological target: T1, hLTBP3-proTGFβ1 (human, UniProt Q9NS15 44-1303; P01137 30-390, limits assumed); assay: SPR (Biacore), Fab
T1 construct: LLC as m1; Same id used for the cell-made complex in reporter assays; also called human LTBP3-proTGFβ1 complex; LTBP3-ProTGFb1
Method: Surface plasmon resonance (SPR) was used to measure binding kinetics using a BIACORE® system. […] Experiments were carried out with eight types of LLCs, namely, hLTBP1-proTGFβ1, mLTBP1-proTGFβ1, hLTBP3-proTGFβ1, mLTBP3-proTGFβ1, hGARP-proTGFβ1, mGARP-proTGFβ1, hLRRC33-proTGFβ1 and mLRRC33-proTGFβ1.
In vitro binding kinetics (on/off rates) were measured in Biacore-based assays and affinities were determined against all four known LLCs using both human and murine counterparts for each. Based on the association rate and dissociation rate, KD was calculated for each. In addition, relative affinities, as compared to the reference antibody as a benchmark, were calculated and expressed as “fold difference” relative to the reference antibody.
A BIACORE® system was employed to determine the monovalent binding affinity and the kinetic parameters for antigen binding of test antibodies. The binding kinetics were evaluated by surface plasmon resonance using Biacore 8K (GE Healthcare). A Biotin CAP sensor chip was used to capture the biotinylated antigens. […] Multi-cycle kinetics was employed where each analyte concentration was injected in a separate cycle and the sensor chip surface was regenerated after each cycle. All the assays were carried out in freshly prepared 1×HBS-EP+buffer (10 mM HEPES, 150 mM NaCl, 3 mM EDTA, 0.05% Tween20, pH 7.4). Data for all the analyte concentrations for each interaction were fit globally to a 1:1 binding model to obtain the kinetic parameters. The Sensorgram for 0 nM analyte concentration was used as reference.

hLTBP1-proTGFβ1 = biological target: T2, hLTBP1-proTGFβ1 (human, UniProt Q14766 347-1721; P01137 30-390, limits assumed); assay: BLI (Octet), Fab in solution, biotinylated antigen immobilised
T2 construct: Large latent complex (LLC): proTGFβ1 dimer disulfide-linked to one presenting molecule; recombinant, purified, biotinylated in BLI/SPR; The same id is used for the complex made by transfected cells in the reporter assays; also called human LTBP1-proTGFβ1 complex; LTBP1-ProTGFb1
T2 sequence (Q14766 347-1721 limits assumed, chain 1 of 2): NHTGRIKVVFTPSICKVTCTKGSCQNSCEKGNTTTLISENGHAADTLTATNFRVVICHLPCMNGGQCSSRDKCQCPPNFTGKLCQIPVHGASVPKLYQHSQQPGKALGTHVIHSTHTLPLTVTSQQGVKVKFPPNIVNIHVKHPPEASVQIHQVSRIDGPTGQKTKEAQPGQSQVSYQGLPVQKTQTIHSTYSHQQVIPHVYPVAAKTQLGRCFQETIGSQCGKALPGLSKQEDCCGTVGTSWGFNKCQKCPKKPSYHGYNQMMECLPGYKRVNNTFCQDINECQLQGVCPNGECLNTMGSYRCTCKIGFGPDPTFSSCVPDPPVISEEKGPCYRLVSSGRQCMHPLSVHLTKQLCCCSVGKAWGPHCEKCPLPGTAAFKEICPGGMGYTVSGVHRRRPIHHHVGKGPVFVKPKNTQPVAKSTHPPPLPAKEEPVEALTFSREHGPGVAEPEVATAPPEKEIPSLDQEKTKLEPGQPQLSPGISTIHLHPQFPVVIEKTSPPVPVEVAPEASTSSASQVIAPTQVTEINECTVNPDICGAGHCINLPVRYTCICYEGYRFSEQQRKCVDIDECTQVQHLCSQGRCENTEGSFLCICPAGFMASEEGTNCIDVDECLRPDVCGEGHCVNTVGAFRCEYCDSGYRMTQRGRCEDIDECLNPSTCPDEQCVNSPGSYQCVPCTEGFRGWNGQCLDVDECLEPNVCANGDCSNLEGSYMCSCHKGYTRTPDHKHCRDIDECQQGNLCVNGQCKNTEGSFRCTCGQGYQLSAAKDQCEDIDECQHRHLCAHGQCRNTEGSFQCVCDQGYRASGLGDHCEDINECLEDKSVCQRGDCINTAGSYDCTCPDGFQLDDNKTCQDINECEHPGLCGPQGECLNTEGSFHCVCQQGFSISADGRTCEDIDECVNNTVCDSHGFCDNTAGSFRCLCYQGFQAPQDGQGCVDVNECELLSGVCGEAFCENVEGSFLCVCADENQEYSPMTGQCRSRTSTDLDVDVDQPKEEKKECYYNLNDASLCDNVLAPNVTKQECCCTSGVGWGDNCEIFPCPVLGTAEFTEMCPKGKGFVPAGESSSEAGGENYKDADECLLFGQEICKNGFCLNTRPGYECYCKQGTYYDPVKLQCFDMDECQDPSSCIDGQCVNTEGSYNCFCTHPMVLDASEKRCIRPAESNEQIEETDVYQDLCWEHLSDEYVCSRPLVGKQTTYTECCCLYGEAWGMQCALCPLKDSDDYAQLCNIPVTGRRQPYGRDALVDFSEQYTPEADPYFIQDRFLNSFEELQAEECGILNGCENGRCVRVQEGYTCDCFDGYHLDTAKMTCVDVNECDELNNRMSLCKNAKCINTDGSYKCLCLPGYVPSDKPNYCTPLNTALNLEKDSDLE
T2 sequence (P01137 30-390 limits assumed, chain 2 of 2): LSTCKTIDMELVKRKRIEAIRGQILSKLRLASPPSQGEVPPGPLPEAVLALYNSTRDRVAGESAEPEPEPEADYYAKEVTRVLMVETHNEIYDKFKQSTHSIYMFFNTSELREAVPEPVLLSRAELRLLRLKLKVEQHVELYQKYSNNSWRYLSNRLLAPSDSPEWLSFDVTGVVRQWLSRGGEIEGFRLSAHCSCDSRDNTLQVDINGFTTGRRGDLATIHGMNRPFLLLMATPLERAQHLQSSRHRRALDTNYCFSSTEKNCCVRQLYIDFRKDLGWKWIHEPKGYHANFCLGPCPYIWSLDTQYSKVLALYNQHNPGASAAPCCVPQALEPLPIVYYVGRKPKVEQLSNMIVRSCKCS
Method: (§1) The table below exemplifies binding kinetics of the listed antibodies (e.g., Fabs) obtained by OCTET®-based binding assays. The experiments were conducted with immobilized, biotinylated antigen and Fab fragments (e.g., test antibodies) in solution.

hGARP-proTGFβ1 = biological target: T3, hGARP-proTGFβ1 (human, UniProt Q14392 18-627; P01137 30-390, limits assumed); assay: as above
T3 construct: LLC as m1; Same id used for the cell-surface complex in reporter assays; also called human GARP-proTGFβ1 complex; GARP-ProTGFb1
T3 sequence (Q14392 18-627 limits assumed, chain 1 of 2): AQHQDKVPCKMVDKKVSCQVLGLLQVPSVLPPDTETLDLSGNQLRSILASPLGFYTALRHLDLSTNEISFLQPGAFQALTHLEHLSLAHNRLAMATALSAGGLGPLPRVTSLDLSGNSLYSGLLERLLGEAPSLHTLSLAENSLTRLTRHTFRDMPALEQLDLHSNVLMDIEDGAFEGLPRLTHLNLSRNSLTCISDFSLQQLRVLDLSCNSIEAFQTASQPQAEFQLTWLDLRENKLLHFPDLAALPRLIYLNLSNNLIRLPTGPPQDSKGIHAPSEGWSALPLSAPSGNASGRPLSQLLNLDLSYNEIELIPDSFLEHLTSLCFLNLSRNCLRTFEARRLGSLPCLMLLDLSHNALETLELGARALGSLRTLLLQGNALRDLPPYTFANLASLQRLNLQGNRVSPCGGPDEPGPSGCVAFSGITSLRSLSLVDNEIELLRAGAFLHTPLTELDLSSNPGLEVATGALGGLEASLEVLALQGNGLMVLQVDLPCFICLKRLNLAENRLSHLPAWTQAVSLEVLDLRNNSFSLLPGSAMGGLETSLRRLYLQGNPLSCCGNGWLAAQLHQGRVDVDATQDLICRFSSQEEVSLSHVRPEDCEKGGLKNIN
T3 sequence (P01137 30-390 limits assumed, chain 2 of 2): as the sequence (P01137 30-390 limits assumed, chain 2 of 2) above
Method: as §1

hLTBP3-proTGFβ1 [2] = biological target: T1, hLTBP3-proTGFβ1; assay: as above
Method: as §1

hLRRC33-proTGFβ1 [3] = biological target: T4, hLRRC33-proTGFβ1 (human, UniProt Q86YC3 19-650; P01137 30-390, limits assumed); assay: SPR (Biacore), Fab; affinity relative to Ref
T4 construct: LLC as m1; Same id used for the cell-surface complex in reporter assays; also called human LRRC33-proTGFβ1 complex; LRRC33-ProTGFb1
T4 sequence (Q86YC3 19-650 limits assumed, chain 1 of 2): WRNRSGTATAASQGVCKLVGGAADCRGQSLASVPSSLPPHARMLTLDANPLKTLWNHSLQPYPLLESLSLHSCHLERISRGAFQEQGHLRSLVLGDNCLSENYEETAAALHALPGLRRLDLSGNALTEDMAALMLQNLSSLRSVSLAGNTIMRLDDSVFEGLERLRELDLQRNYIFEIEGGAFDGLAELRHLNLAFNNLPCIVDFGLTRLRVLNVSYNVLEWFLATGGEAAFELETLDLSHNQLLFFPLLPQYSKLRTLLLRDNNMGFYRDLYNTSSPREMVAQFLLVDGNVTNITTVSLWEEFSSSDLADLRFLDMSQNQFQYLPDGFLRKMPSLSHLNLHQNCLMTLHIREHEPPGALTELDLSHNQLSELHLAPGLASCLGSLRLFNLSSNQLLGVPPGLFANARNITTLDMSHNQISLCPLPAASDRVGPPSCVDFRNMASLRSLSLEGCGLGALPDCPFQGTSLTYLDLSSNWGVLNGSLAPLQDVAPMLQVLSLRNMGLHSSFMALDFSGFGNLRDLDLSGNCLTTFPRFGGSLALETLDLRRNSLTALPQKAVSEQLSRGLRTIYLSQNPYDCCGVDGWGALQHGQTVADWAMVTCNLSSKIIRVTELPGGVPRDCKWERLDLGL
T4 sequence (P01137 30-390 limits assumed, chain 2 of 2): as the sequence (P01137 30-390 limits assumed, chain 2 of 2) above

mLRRC33-proTGFβ1 [4] = biological target: T5, mLRRC33-proTGFβ1 (murine, UniProt Q8BMT4 20-651); assay: SPR (Biacore), Fab; affinity relative to Ref
T5 sequence (Q8BMT4 20-651): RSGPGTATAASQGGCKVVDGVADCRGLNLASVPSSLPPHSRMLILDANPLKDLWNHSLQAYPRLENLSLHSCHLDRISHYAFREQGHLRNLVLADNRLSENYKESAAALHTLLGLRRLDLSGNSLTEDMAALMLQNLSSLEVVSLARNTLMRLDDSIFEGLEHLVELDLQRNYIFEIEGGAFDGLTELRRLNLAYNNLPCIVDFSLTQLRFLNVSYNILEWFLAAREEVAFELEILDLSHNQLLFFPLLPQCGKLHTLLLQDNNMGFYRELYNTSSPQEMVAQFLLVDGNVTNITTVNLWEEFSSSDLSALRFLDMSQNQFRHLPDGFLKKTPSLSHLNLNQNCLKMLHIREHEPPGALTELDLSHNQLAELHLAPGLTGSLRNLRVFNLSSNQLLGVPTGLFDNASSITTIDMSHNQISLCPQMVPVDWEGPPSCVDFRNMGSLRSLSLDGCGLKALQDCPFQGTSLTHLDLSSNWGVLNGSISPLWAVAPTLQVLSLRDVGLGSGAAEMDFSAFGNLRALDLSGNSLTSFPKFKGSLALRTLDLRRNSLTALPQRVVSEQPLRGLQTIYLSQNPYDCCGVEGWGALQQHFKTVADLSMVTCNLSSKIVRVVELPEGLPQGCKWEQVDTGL

hLRRC33-proTGFβ1 [5] = biological target: T4, hLRRC33-proTGFβ1; assay: SPR (Biacore), Fab
mLRRC33-proTGFβ1 [6] = biological target: T5, mLRRC33-proTGFβ1; assay: SPR (Biacore), Fab
mGARP-proTGFβ1 = biological target: T6, mGARP-proTGFβ1 (mouse); assay: SPR (Biacore), Fab; affinity relative to Ref
T6 construct: Murine LLC; also called murine GARP-proTGFβ1 complex

T1 sequence (Q9NS15 44-1303 limits assumed, chain 1 of 2): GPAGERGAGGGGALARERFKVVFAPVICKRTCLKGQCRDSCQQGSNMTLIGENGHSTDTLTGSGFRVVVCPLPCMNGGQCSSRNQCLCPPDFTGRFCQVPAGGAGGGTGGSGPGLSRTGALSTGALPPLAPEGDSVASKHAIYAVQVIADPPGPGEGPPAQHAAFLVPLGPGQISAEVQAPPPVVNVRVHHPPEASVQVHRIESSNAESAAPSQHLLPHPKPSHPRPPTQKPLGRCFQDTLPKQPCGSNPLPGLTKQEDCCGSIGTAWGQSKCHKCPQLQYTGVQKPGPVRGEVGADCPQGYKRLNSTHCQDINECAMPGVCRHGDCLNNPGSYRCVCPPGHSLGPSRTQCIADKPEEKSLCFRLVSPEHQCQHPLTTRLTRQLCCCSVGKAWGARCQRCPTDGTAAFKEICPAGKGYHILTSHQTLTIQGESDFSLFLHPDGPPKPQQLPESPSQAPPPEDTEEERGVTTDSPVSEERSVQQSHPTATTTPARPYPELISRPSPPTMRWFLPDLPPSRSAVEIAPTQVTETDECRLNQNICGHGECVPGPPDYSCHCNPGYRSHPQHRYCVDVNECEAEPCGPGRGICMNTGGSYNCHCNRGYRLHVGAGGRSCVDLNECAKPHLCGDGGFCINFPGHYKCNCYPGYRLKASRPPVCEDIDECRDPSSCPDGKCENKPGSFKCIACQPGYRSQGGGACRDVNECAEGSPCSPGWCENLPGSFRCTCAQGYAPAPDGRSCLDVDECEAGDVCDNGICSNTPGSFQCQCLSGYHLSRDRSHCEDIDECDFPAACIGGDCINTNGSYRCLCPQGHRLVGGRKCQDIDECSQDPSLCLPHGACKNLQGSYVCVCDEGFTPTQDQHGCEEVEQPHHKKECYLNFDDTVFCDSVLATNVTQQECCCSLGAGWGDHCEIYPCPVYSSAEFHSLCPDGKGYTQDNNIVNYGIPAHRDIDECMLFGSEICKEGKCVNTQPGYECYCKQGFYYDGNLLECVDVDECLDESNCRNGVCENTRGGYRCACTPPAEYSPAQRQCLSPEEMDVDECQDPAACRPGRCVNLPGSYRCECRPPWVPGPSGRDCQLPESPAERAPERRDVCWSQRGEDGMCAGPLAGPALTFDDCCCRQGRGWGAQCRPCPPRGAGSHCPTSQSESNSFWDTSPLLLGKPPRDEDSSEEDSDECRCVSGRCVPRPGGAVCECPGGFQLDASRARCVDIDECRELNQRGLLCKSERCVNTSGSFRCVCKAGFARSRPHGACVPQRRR
T1 sequence (P01137 30-390 limits assumed, chain 2 of 2): as the sequence (P01137 30-390 limits assumed, chain 2 of 2) above

Kd (hLTBP3-proTGFβ1 [1]): 0.127 nM
koff (hLTBP3-proTGFβ1 [1]): 0.000128 s⁻¹
kon (hLTBP3-proTGFβ1 [1]): 1e+06 M⁻¹ s⁻¹
koff (hLTBP1-proTGFβ1): 4.98e-05 s⁻¹
kon (hLTBP1-proTGFβ1): 703000 M⁻¹ s⁻¹
koff (hGARP-proTGFβ1): 0.00029 s⁻¹
kon (hGARP-proTGFβ1): 703000 M⁻¹ s⁻¹
koff (hLTBP3-proTGFβ1 [2]): 0.000438 s⁻¹
kon (hLTBP3-proTGFβ1 [2]): 619000 M⁻¹ s⁻¹
Fold difference (hLRRC33-proTGFβ1 [3]): 118 fold
Fold difference (mLRRC33-proTGFβ1 [4]): 95 fold
Kd (hLRRC33-proTGFβ1 [5]): 0.0841 nM
koff (hLRRC33-proTGFβ1 [5]): 0.000128 s⁻¹
kon (hLRRC33-proTGFβ1 [5]): 1.52e+06 M⁻¹ s⁻¹
Kd (mLRRC33-proTGFβ1 [6]): 0.0892 nM
koff (mLRRC33-proTGFβ1 [6]): 0.000112 s⁻¹
kon (mLRRC33-proTGFβ1 [6]): 1.26e+06 M⁻¹ s⁻¹
Fold difference (mGARP-proTGFβ1): 69 fold
B1: Ab46 Fab (Fab, V domains shown)
VH: EVQLLESGGGLVQPGGSLRLSCAASGFTFADYAMTWVRQAPGKGLEWVSAISGSGAATYFADSVKGRFTISRDNSKNTLYLQMNSLRAEDTAVYYCARVSSGHWDYDYWGQGTLVTVSS
VL: DIQLTQSPSSLSASVGDRVTITCRASQSISSYLNWYQQKPGKAPKLLIYAASGLESGVPSRFSGSGSGTDFTLTISSLQPEDFATYYCQQTYGVPLTFGGGTKVEIK
notes: Fab fragment
